Reference: patent US20160137730A1 (Novartis, published 2016)

Columns and labels:
[1] = target: T1, recombinant human N-cadherin ECD (human, UniProt P19022 160-724); test: ELISA, ECD coated on plate, Fab-containing E. coli lysate
T1 construct: extracellular domain; also called N-cadherin (CDH2)
T1 sequence (looked up): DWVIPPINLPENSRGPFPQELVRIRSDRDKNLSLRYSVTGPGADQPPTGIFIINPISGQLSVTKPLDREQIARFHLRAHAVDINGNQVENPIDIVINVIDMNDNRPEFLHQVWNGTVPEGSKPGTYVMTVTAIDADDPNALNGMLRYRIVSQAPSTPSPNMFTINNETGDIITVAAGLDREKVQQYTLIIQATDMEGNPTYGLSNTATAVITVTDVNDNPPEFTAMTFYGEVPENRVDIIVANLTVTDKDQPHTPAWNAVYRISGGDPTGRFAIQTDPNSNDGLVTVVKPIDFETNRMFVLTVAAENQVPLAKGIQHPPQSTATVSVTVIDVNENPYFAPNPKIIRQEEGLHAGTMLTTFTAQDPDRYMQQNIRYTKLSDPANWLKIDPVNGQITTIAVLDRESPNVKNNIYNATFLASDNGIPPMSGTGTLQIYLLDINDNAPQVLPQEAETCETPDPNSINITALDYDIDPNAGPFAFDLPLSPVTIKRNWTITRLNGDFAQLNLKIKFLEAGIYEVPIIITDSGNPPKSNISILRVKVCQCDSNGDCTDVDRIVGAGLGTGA
Method: (§1) To assess specificity of binding to P-cadherin vs E-cadherin and N-cadherin, Maxisorp 384-well plates were o/n at 4° C. with recombinant human E-cadherin or N-cadherin ECD and Fab fragments were assayed using an enzyme-linked immunosorbent assay (ELISA) format. After washing, plates were blocked for 2 h with 5% skim milk in 1×PBST. Fab-containing E. coli lysates were added and binding allowed for 1 h at room temperature (RT). To detect bound Fab fragments, plates were washed 5× with TBST and AP-anti human IgG F(ab′)₂ was added in a 1/2500 dilution. After 1 h at RT, plates were washed 5× with TBST and AttoPhos substrate was added according to the manufacturers specifications. Plates were read in an ELISA reader 5 minutes after adding the substrate.

[2] = target: T2, recombinant human E-cadherin ECD (human, UniProt P12830 155-709); test: as above
T2 construct: extracellular domain; also called E-cadherin (CDH1)
T2 sequence (looked up): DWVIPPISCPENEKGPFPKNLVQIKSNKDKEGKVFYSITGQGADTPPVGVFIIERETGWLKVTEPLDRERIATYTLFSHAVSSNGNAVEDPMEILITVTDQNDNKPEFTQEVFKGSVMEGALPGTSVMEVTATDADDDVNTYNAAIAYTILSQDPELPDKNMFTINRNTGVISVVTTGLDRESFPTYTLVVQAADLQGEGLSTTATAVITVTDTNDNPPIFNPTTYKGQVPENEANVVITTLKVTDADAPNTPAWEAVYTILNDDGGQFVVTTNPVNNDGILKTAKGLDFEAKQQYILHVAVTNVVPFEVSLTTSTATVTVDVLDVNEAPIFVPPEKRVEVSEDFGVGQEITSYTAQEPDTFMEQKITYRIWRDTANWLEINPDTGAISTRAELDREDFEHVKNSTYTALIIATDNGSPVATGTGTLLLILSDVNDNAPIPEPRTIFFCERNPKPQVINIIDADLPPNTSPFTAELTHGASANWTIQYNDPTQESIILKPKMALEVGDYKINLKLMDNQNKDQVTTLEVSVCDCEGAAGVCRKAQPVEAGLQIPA
Method: as §1

B1: NOV169N31Q Fab (Fab, V domains shown)
VH: QVQLQQSGPGLVKPSQTLSLTCAISGDSVSSQSAAWNWIRQSPSRGLEWLGRIYYRSKWYNDYALSVKSRITINPDTSKNQFSLQLNSVTPEDTAVYYCARGEGYGREGFAIWGQGTLVTVSS
VL: DIQMTQSPSSLSASVGDRVTITCRASQTISNTLAWYQQKPGKAPKLLIYAASNLQSGVPSRFSGSGSGTDFTLTISSLQPEDFATYYCQQYLSWFTFGQGTKVEIKR
notes: Expressed in E. coli; also called Fab fragment of NOV169N31Q
B1: no binding [1]; no binding [2].
